B1: Dlx3I Oligo (dsDNA)
DNA 1: GAGCTATTTAATTAAGTGAAA
DNA 2: TTTCACTTAATTAAATAGCTC
B2: Dlx3II Oligo (dsDNA)
DNA 1: GTTGAGAAAATTATCAAACTGA
DNA 2: TCAGTTTGATAATTTTCTCAAC

Target: Dlx3 (recombinant) (UniProt O60479 1-287)
Experiment: EMSA; anti-Dlx3 supershift; cold competitor 100x; EMSA as described previously (binding buffer not given); 5% native polyacrylamide gel in 1x TBE; 100-fold molar excess of unlabeled competitor
Conditions: protein: recombinant; label: 32P; blunt

Sequence of Dlx3 (recombinant) (O60479 whole entry): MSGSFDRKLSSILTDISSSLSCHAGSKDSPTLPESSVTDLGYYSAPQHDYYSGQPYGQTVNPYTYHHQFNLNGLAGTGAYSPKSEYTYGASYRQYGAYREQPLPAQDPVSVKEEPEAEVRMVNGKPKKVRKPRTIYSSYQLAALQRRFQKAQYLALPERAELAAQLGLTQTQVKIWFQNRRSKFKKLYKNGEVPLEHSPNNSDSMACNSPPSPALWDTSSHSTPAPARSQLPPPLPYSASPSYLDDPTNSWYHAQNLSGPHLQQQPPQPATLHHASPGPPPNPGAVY

Row | Binder | binding result
1 | B1 | binds
2 | B2 | binds
